Results reported in article doi:10.1101/483925 (bioRxiv, 2018).

B1: 14-3-3n (At3g02520; GRF7) (natural protein)
chain: MSSSREENVYLAKLAEQAERYEEMVEFMEKVAKTVDTDELTVEERNLLSVAYKNVIGARRASWRIISSIEQKEESRGNDDHVSIIKDYRGKIETELSKICDGILNLLDSHLVPTASLAESKVFYLKMKGDYHRYLAEFKTGAERKEAAESTLVAYKSAQDIALADLAPTHPIRLGLALNFSVFYYEILNSPDRACSLAKQAFDEAISELDTLGEESYKDSTLIMQLLRDNLTLWNSDINDEAGGDEIKEASKHEPEEGKPAETGQ

Experiments:
[1] = target: T1, FD, full-length, phosphomimic variant T282E (Arabidopsis thaliana, UniProt Q84JK2 1-285, T282E); experiment: native gel or EMSA
T1 sequence: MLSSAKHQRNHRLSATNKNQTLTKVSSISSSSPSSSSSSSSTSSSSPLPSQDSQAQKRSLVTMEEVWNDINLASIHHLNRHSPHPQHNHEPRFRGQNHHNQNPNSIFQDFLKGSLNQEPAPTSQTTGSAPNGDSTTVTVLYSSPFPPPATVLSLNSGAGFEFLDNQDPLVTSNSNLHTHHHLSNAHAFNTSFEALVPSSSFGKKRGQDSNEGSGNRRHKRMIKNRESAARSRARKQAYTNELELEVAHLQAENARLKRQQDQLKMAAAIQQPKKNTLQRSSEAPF

[2] = target: B1; experiment: native gel or EMSA

B1: binds [1].

B2: TERMINAL FLOWER 1 (TFL1) (natural protein)
chain: not shown
B2: binds [2].

B3: FD-C_T282E, phosphomimic variant of the C-terminal domain of FD (amino acids 203-285) (domain or fragment)
chain: KKRGQDSNEGSGNRRHKRMIKNRESAARSRARKQAYTNELELEVAHLQAENARLKRQQDQLKMAAAIQQPKKNTLQRSSEAPF
B3: binds [2].

B4: FLOWERING LOCUS T (FT) (natural protein)
chain: not shown
B4: binds [2].
